In experiment [1] the target is T1, human CD23 (human, UniProt P06734 1-321).
T1 chain: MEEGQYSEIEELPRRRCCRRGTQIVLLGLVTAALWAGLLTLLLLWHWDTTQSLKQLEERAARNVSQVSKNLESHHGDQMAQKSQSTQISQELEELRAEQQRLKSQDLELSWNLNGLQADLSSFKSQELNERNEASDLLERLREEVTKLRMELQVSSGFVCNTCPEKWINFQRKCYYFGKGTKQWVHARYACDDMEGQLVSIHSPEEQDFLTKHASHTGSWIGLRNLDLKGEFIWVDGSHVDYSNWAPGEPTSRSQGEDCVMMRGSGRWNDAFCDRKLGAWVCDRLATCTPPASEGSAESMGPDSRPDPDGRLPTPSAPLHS
Description: apparent Kd.

Experiment [2] addresses T1, human CD23. Description: apparent Kd; replicate 3.
The target of experiment [3] is T1, human CD23. Description: apparent Kd; replicate 2.
Experiment [4] deals with T1, human CD23. The experiment is described as follows: apparent Kd; replicate 1.
In experiment [5] the target is T1, human CD23. The experiment is described as follows: apparent Kd; replicate 4.
Another experiment addresses p5E8G1. The experiment is described as follows: apparent Kd.
In another experiment the target is p5E8G1N-. The experiment is described as follows: apparent Kd.

Numbering of substitutions follows the chain as printed.

B1: PRIMATIZED antibody p5E8G4PN- (antibody, V domains shown)
VH: EVQLVESGGGLAKPGGSLRLSCAASGFRFTFNNYYMDWVRQAPGQGLEWVSRISSSGDPTWYADSVKGRFTISRENAKNTLFLQMNSLRAEDTAVYYCASLTTGSDSWGQGVLVTVSS
VL: DIQMTQSPSSLSASVGDRVTITCRASQDIRYYLNWYQQKPGKAPKLLIYVASSLQSGVPSRFSGSGSGTEFTLTVSSLQPEDFATYYCLQVYSTPRTFGQGTKVEIK
With B1, the Kd with human CD23 [1] is 300 pM.

B2: primate anti-human CD23 monoclonal antibody 5E8 (antibody, V domains shown)
VH: B1 VH with K78N
VL: B1 VL
modifications: N-linked oligosaccharide at the asparagine of the heavy chain variable region glycosylation site (Kabat 75)
In the case of B2, the Kd in the experiment with human CD23 [2] was 1800 pM; with human CD23 [3], 1500 pM; with human CD23 [4], 500 pM; with human CD23 [5], 4400 pM.

B3: PRIMATIZED antibody p5E8G4P (antibody, V domains shown)
VH: B1 VH with K78N
VL: B1 VL
modifications: N-linked oligosaccharide at the asparagine of the heavy chain variable region glycosylation site (Kabat 75)
For B3, the Kd was determined as 1000 pM in the experiment with human CD23 [3] and 300 pM with human CD23 [4].

B4: CD23 (receptor)
chain: T1 chain
As for B4, the Kd in the experiment with p5E8G1 and with p5E8G1N- was 700 pM throughout.
